Consider one substance from patent US20180282412A1.

Test [1] addresses PD-1-Fc fusion protein (extracellular region of human PD-1 fused to human Fc) (human). Put plainly: ELISA on coated PD-1-Fc, HRP anti-human kappa.
The target is the same in test [2]. As to the kind of experiment: SPR (Biacore), PD-1-Fc immobilized, antibody as analyte. In general terms: Surface plasmon resonance follows binding to a sensor surface in real time, without labels.

Usually EC50 (read off the curve) stands for the concentration at which the effect is half-maximal. A low value points to higher potency in that assay. For orientation: Kd means a measure of binding affinity in units of concentration. A lower Kd goes with tighter binding.

PD-1-Fc fusion protein (extracellular region of human PD-1 fused to human Fc) (human), sequence (chain, as listed by the source limits assumed): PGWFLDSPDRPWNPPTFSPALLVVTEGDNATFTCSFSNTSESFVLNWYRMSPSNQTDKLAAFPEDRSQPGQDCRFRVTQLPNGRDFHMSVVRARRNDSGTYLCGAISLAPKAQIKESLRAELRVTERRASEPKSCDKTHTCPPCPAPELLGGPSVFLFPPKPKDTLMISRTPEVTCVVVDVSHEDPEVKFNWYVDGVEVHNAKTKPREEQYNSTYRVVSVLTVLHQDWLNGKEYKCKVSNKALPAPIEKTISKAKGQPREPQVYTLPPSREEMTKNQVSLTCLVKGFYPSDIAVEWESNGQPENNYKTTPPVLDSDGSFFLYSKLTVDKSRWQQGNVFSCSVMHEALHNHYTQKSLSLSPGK

In test [1], Nivolumab (antibody) displayed an EC50 (read off the curve) of 0.04 µg/mL. The substance further displayed a dissociation constant (Kd) in test [2] of 0.0212 nM.
